This passage reports protein stability index results from the supplement of paper PMC10567573.

Sequences and labels used below:
B1: CLCN6 (parent)
chain: TGLVGLFVDFFVRLFTQLKFGVVQ
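Further: lentivirally expressed fusions sorted by FACS into six bins by GFP to DsRed ratio, PSI derived from sequencing read proportions per bin multiplied by bin number.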

Variants of B1 are the subject of the data set. Nature of the data set: protein stability index of a GFP-peptide fusion (GPS, HEK-293T) (PSI 1-6); higher = more stable. Conditions: c terminus: a fixed tail appended.
With TGLVGLFVDFFVRLFTQLVFGVVQ, the protein stability index stood at 2.66. The same measure for TGLVGLFVDFFVRLFTQLSFGVVQ: 2.92. Regarding TGLVGLFVDFFVRLFTQLDFGVVQ, the protein stability index was found to be 3.05. In the case of TGLVGLFVDFFVRLFTQLLFGVVQ, the protein stability index stood at 2.56.

TGLVGLFVDFFVRLFTQLNFGVVQ: the protein stability index was 2.21. Turning to TGLVGLFVDFFVRLFTQLAFGVVQ, the protein stability index came out at 2.84. In the case of TGLVGLFVDFFVRLFTQLFFGVVQ it was 1.89; in that of TGLVGLFVDFFVRLFTQLPFGVVQ, 1.91. With TGLVGLFVDFFVRLFTQLHFGVVQ, the protein stability index is 3.23. The same measure for TGLVGLFVDFFVRLFTQLEFGVVQ: 4.38.

As to TGLVGLFVDFFVRLFTQLRFGVVQ, the protein stability index was determined as 2.17.

Consider TGLVGLFVDFFVRLFTQLQFGVVQ, for which the protein stability index stood at 2.89. In the case of TGLVGLFVDFFVRLFTQLYFGVVQ it was 2.85.

Regarding TGLVGLFVDFFVRLFTQLGFGVVQ, the protein stability index came out at 1.98. On to TGLVGLFVDFFVRLFTQLTFGVVQ, for which the protein stability index was found to be 2.33.

Regarding TGLVGLFVDFFVRLFTQLMFGVVQ, the protein stability index came out at 3.13. With TGLVGLFVDFFVRLFTQLWFGVVQ, the protein stability index is 3.05. The same measure for TGLVGLFVDFFVRLFPQLKFGVVQ: 1.8. The same measure for TGLVGLFVDFFVRLFQQLKFGVVQ: 3.

For TGLVGLFVDFFVRLFSQLKFGVVQ, the protein stability index was determined as 2.91.

Turning to TGLVGLFVDFFVRLFRQLKFGVVQ, the protein stability index turned out to be 3.85.

Turning to TGLVGLFVDFFVRLFVQLKFGVVQ, the protein stability index was 1.78. Consider TGLVGLFVDFFVRLFWQLKFGVVQ, for which the protein stability index was determined as 3.32. With TGLVGLFVDFFVRLFYQLKFGVVQ, the protein stability index was 1.98.

Turning to TGLVGLFVDFFVRLFTQLKVGVVQ, the protein stability index is 2.84. In the case of TGLVGLFVDFFVRLFTQLKCGVVQ, the protein stability index was 3.79. As to TGLVGLFVDFFVRLFTQLKNGVVQ, the protein stability index amounted to 3.99. As to TGLVGLFVDFFVRLFTQLKMGVVQ, the protein stability index was found to be 2.77. TGLVGLFVDFFVRLFTQLKWGVVQ: the protein stability index amounted to 2.63.

With TGLVGLFVDFFVRLFTQLKLGVVQ, the protein stability index amounted to 2.96. In the case of TGLVGLFVDFFVRLFTQLKIGVVQ it was 2.97; in that of TGLVGLFVDFFVRLFTQLKHGVVQ, 2.58. In the case of TGLVGLFVDFFVRLFTQLKEGVVQ it was 3.61. In the case of TGLVGLFVDFFVRLFTQLKRGVVQ it was 4.55; in that of TGLVGLFVDFFVRLFTQLKDGVVQ, 4.13; in that of TGLVGLFVDFFVRLFTQLKGGVVQ, 2.89. For the variant TGLVGLFVDFFVRLFTQLKSGVVQ, the protein stability index turned out to be 3.86. The same measure for TGLVGLFVDFFVRLFTQLKYGVVQ: 2.55.

For TGLVGLFVDFFVRLFTQLKPGVVQ, the protein stability index amounted to 2.12. In the case of TGLVGLFVDFFVRLFTQLKKGVVQ it was 4.3; in that of TGLVGLFVDFFVRLFTQLKTGVVQ, 3.48. The same measure for TGLVGLFVDFFVRLFTQLKQGVVQ: 3.83; for TGLVGLFVDFFVRLFTQLKAGVVQ: 3.03; for TGLVGLFVDFFVRLFTVLKFGVVQ: 2.14. The same measure for TGLVGLFVDFFVRLFTDLKFGVVQ: 1.81; for TGLVGLFVDFFVRLFTALKFGVVQ: 2.38. On to TGLVGLFVDFFVRLFTILKFGVVQ, for which the protein stability index came out at 1.79. The same measure for TGLVGLFVDFFVRLFTKLKFGVVQ: 2.48; for TGLVGLFVDFFVRLFTTLKFGVVQ: 2.12; for TGLVGLFVDFFVRLFTFLKFGVVQ: 2.44. In the case of TGLVGLFVDFFVRLFTELKFGVVQ it was 2; in that of TGLVGLFVDFFVRLFTPLKFGVVQ, 2.08; in that of TGLVGLFVDFFVRLFTCLKFGVVQ, 2.01. In the case of TGLVGLFVDFFVRLFTWLKFGVVQ, the protein stability index was found to be 3.5. In the case of TGLVGLFVDFFVRLFTLLKFGVVQ it was 2.43. Regarding TGLVGLFVDFFVRLFTGLKFGVVQ, the protein stability index is 1.77. In the case of TGLVGLFVDFFVRLFTYLKFGVVQ it was 2.06.

In the case of TGLVGLFVDFFVRLFTRLKFGVVQ, the protein stability index came out at 3.5.

For the variant TGLVGLFVDFFVRLFTSLKFGVVQ, the protein stability index was 2.81. Regarding TGLVGLFVDFFVRLFTNLKFGVVQ, the protein stability index is 2.44. In the case of TGLVGLFVDFFVRLFTMLKFGVVQ, the protein stability index stood at 2.09. In the case of TGLVGLFVDFFVRLFTHLKFGVVQ it was 2.26.

Regarding TGLVGLFVDFFVRLFTQLKFCVVQ, the protein stability index was 1.86.

On to TGLVGLFVDFFVRLFTQLKFAVVQ, for which the protein stability index amounted to 3.26. With TGLVGLFVDFFVRLFTQLKFHVVQ, the protein stability index was found to be 3.06. Consider TGLVGLFVDFFVRLFTQLKFEVVQ, for which the protein stability index is 2.3. As for TGLVGLFVDFFVRLFTQLKFPVVQ, the protein stability index was found to be 2.35. Take TGLVGLFVDFFVRLFTQLKFLVVQ: the protein stability index is 3.33.

With TGLVGLFVDFFVRLFTQLKFQVVQ, the protein stability index is 2.77.

For TGLVGLFVDFFVRLFTQLKFKVVQ, the protein stability index amounted to 3.7. In the case of TGLVGLFVDFFVRLFTQLKFRVVQ it was 3.56. In the case of TGLVGLFVDFFVRLFTQLKFIVVQ it was 2.94; in that of TGLVGLFVDFFVRLFTQLKFFVVQ, 3.79; in that of TGLVGLFVDFFVRLFTQLKFMVVQ, 3.39. In the case of TGLVGLFVDFFVRLFTQLKFDVVQ it was 2.38; in that of TGLVGLFVDFFVRLFTQLKFSVVQ, 3.08; in that of TGLVGLFVDFFVRLFTQLKFNVVQ, 2.38. For TGLVGLFVDFFVRLFTQGKFGVVQ, the protein stability index was 2.21. In the case of TGLVGLFVDFFVRLFTQWKFGVVQ it was 1.66; in that of TGLVGLFVDFFVRLFTQRKFGVVQ, 2.74; in that of TGLVGLFVDFFVRLFTQSKFGVVQ, 2.03. In the case of TGLVGLFVDFFVRLFTQFKFGVVQ it was 2.46; in that of TGLVGLFVDFFVRLFTQKKFGVVQ, 2.02. The same measure for TGLVGLFVDFFVRLFTQMKFGVVQ: 2.48. Regarding TGLVGLFVDFFVRLFTQIKFGVVQ, the protein stability index is 2.7. As to TGLVGLFVDFFVRLFTQTKFGVVQ, the protein stability index turned out to be 2.75. TGLVGLFVDFFVRLFTQNKFGVVQ: the protein stability index is 3.66. The same measure for TGLVGLFVDFFVRLFTQPKFGVVQ: 2.63.

As for TGLVGLFVDFFVRLFTQYKFGVVQ, the protein stability index was 3.06.

As to TGLVGLFVDFFVRLFTQAKFGVVQ, the protein stability index was 1.97. For TGLVGLFVDFFVRLFTQHKFGVVQ, the protein stability index was 3.39. TGLVGLFVDFFVRLFTQVKFGVVQ: the protein stability index stood at 1.98. As to TGLVGLFVDFFVRLFTQDKFGVVQ, the protein stability index came out at 2.25. Regarding TGLVGLFVDFFVRLFTQCKFGVVQ, the protein stability index was 2.36.
